We go through 2 molecules from patent publication US20190016816A1 (APTEVO RESEARCH AND DEVELOPMENT, published 2019).

For assay [1], the target named is T1, human 5T4 on cells (human, UniProt Q13641 32-420).
T1 construct: also called TPBG; hu5T4
T1 sequence: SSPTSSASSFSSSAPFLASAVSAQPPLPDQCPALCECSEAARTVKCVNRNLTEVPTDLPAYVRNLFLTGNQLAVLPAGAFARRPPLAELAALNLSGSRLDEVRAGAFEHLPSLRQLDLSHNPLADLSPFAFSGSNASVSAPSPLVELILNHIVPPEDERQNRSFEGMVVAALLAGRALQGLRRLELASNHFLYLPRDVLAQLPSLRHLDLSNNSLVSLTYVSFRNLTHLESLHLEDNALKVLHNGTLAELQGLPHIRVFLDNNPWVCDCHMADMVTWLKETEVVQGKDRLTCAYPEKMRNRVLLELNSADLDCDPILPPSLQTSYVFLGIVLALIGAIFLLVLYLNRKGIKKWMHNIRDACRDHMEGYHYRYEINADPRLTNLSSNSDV
Kind of assay: flow cytometry, CHO/5T4 cells, PE goat anti-human Fc. The protocol:
A 3-fold titration of ALG.APV-210 construct (ranging from 100 nM to 0.14 nM) was incubated with the human 5T4-expressing cell lines for 40 minutes in FACS buffer at 4° C., washed 3 times, and detected with PE-labeled, goat-anti-human Fc secondary antibody (Jackson ImmunoResearch). Binding of ALG.APV-210 was detected by flow cytometry. All samples were run in duplicates. Nonlinear regression analysis to determine EC₅₀ values was performed in GraphPad Prism 6® graphing and statistics software.
On the technique in general: In flow cytometry, cells or beads pass a laser one at a time.

The target of assay [2] is T2, human CD137 on cells (human, UniProt Q07011 24-255).
T2 construct: also called 4-1BB; TNFRSF9 (CHO-K1/human CD137 cells)
T2 sequence (Q07011 24-255 limits assumed): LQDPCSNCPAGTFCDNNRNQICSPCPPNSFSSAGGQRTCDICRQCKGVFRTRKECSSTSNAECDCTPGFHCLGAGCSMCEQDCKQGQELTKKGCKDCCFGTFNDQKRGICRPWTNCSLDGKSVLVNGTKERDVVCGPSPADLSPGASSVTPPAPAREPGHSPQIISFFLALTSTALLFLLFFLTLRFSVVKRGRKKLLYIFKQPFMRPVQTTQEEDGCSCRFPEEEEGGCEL
Description: flow cytometry, normalized percentage of CD8 T cells (gated from CD3-stimulated human PBMC) bound by the biotinylated antibody, pooled data of 2 exp, n=6 donors. On the procedure:
(§1) Following 48 h of incubation with or without CD3, human and cynomolgus PBMC were harvested, pooled, recounted and diluted in FACS buffer (PBS+0.5% BSA, 0.05% NaN₃) to a concentration of 5×10⁶ cells/mL. 50 μL (0.25×10⁶ cells) of cell solution was added to a 96-well FACS staining plate (Falcon #351190). Following 10 min of Fc-blocking in RT using Beriglobin (hIgG, 200 μg/mL), cells were washed in FACS buffer and then incubated for 1 h in 4° C. with 100 μL of the biotinylated ALG.APV-210 or negative control. The antibodies were added in a serial dilution starting either at 5 μg/mL titrating down in a 12 step ⅓ dilution down to […] (exp 1) or 1 μg/mL titrating down in a 12 step ½ dilution down to 0.0005 μg/mL (exp 2). […] Cells were analysed for ALG.APV-210 binding using flow cytometry by gating on viable, single cells expressing CD3 and CD8. MFI values (FMO subtracted) from 2 independent experiments as well as normalized pooled data from 2 experiments and EC₅₀-values were determined and plotted using GraphPad Prism 7, non-linear regression log (agonist) vs. normalized response—variable slope, n=6 donors/group.

Assay [3] addresses T1, human 5T4 on cells. Description: flow cytometry, HCT-116 cells, streptavidin-PE, normalized MFI of 2 pooled experiments; HCT-116 cells. The protocol:
(§2) Prior to the FACS staining, all cell lines were characterized for their 5T4 expression levels using a receptor density kit (Quantum Simply Cellular, anti-human IgG, Bangs Laboratories, Inc). Adherent cell lines were cultured according to their supplier's instructions and were harvested from their cell culture flasks using Trypsin/EDTA, counted in R10 medium in a Burker chamber, and diluted in FACS buffer (PBS+0.5% BSA, 0.05% NaN₃) to a concentration of 4×10⁶ cells/mL. 50 μL (0.20×10⁶) of cell solution was added to a 96-well FACS staining plate (Falcon #351190). Cells were incubated for 20 min in 4° C. with 50 μL of the biotinylated ALG.APV-210 (2× final concentration). The antibodies were added in a serial dilution starting at 20 μg/mL titrating down in a 12 step ½ dilution down to 0.010 μg/mL. Following 2× washing with FACS buffer, cells were incubated for 30 min in 4° C. with 100 μL of a secondary antibody (streptavidin-PE, BD #554061, diluted 1/500). […] Cells were analysed for ALG.APV-210 binding using flow cytometry (FACSVerse) by gating on single cells. MFI values (secondary antibody only subtracted) from 1 out of 2 independent experiments, as well as normalized data and EC₅₀-values of pooled data from 2 experiments were determined and plotted using GraphPad Prism 7, non-linear regression log (agonist) vs. normalized response—variable slope.

The target in assay [4] is T3, cynomolgus CD137 on cells (cynomolgus macaque, UniProt A9YYE7 24-254).
T3 construct: whole, on cells; also called CHO-K1/cynomolgus CD137 cell line; cynomolgus monkey CD137 on CD3-stimulated primary CD8 T cells
T3 sequence (A9YYE7 entry or part of it): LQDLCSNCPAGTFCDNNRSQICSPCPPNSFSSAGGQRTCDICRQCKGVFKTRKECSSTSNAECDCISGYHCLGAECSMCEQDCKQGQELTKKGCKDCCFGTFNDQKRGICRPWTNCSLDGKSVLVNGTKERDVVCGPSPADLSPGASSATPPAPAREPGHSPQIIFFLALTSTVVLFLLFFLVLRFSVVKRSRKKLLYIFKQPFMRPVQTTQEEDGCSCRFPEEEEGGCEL
Kind of assay: flow cytometry, normalized percentage of CD8 T cells (gated from CD3-stimulated cynomolgus PBMC) bound by the biotinylated antibody, pooled data of 2 exp, n=6 donors. On the procedure: as §1

The target in assay [5] is T3, cynomolgus CD137 on cells. Description: flow cytometry, percentage of CD8 T cells (gated from CD3-stimulated cynomolgus PBMC) bound by the biotinylated antibody, exp 1, n=3 donors. On the procedure:
as §1

Assay [6] addresses T2, human CD137 on cells. Kind of assay: flow cytometry, MFI of all CD3+CD8+ cells gated from CD3-stimulated human PBMC. On the procedure: as §1
For assay [7], the target named is T1, human 5T4 on cells. Kind of assay: flow cytometry, JEG cells, streptavidin-PE, normalized MFI of 2 pooled experiments. On the procedure: as §2
For assay [8], the target named is T1, human 5T4 on cells. Description: flow cytometry, B16-hu5T4 cells, streptavidin-PE, normalized MFI of 2 pooled experiments. The protocol:
as §2

B1: ALG.APV-210 (bispecific antibody)
chain: EVQLLESGGGLVQPGGSLRLSCAASGFTFSHGSMYWVRQAPGKGLEWVSSISSGSGSTYYADSVKGRFTISHDNSKNTLYLQMNSLRAEDTAVYYCARSSYYGSYYSIDYWGQGTLVTVSSGGGGSGGGGSGGGGSGGGGSDIQMTQSPSSLSASVGDRVTITCRASQSISSYLNWYQQKPGKAPKLLIYAASSLQSGVPSRFSGSGSGTDFTLTISSLQPEDFATYYCQQYYDNLPTFGQGTKLEIKEPKSSDKTHTCPPCPAPEAAGAPSVFLFPPKPKDTLMISRTPEVTCVVVDVSHEDPEVKFNWYVDGVEVHNAKTKPREEQYNSTYRVVSVLTVLHQDWLNGKEYKCAVSNKALPAPIEKTISKAKGQPREPQVYTLPPSRDELTKNQVSLTCLVKGFYPSDIAVEWESNGQPENNYKTTPPVLDSDGSFFLYSKLTVDKSRWQQGNVFSCSVMHEALHNHYTQKSLSLSPGSGGGGSGGGGSGGGGSPSEVQLLESGGGLVQPGGSLRLSCAASGFTFSSYAMSWVRQAPGKCLEWVSAISGSGGSTYYADSVKGRFTISRDNSKNTLYLQMNSLRAEDTAVYYCARYYGGYYSAWMDYWGQGTLVTVSSGGGGSGGGGSGGGGSGGGGSDIQMTQSPSSLSASVGDRVTITCRASQSISSFLNWYQQKPGKAPKLLIYAASSLQSGVPSRFSGSGSGTDFTLTISSLQPEDSATYYCQQTYGYLHTFGCGTKLEIKR
notes: Optimized ADAPTIR scFv-Fc-scFv homodimer with stabilizing disulfide in the 1210 scFv; also called 5T4-CD137 bispecific antibody
One may read the EC50 as the concentration giving half of the maximal effect. In the case of B1, the EC50 with human 5T4 on cells [1] is 10 nM.

B2: biotinylated ALG.APV-210 (bispecific antibody)
chain: B1 chain
notes: also called ALG.APV-210 (biotinylated for FACS detection)
As a reminder, the EC50 (read off the curve) is the concentration giving half of the maximal effect. Read a low EC50 (read off the curve) as an effect from little substance. With B2, the EC50 with human CD137 on cells [2] is 0.027 nM; with human 5T4 on cells [3], 16 nM; in assay [4], 0.019 nM; with human CD137 on cells [6] it was 0.235 nM; with human 5T4 on cells [7] it was 8 nM; with human 5T4 on cells [8], 14 nM. Moreover, the “EC50 (read off the curve)” value in assay [5] is about 0.02 nM.
